In the supplement of paper PMC5998384:

Assays:
HeLa Kyoto [1] = assay: melting temperature (median over replicates), in situ; higher = more thermally stable
HeLa Kyoto [2] = assay: solubility in G1/S (NP-40 vs SDS abundance) (log2 ratio); higher = more soluble; details: cell cycle stage: G1/S
HeLa Kyoto [3] = assay: solubility change mitosis vs G1/S (difference of NP-40 vs SDS log2 ratios) (log2 ratio difference); higher = more soluble in mitosis
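Wherever melting temperature (median over replicates), in situ is given: HeLa Kyoto cells synchronized by double thymidine or nocodazole block, proteins quantified by TMT10plex mass spectrometry, three independent biological replicates.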
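Wherever solubility change mitosis vs G1/S (difference of NP-40 vs SDS log2 ratios) is given: synchronized HeLa Kyoto cells (double thymidine block for G1/S, nocodazole release for mitosis), protein amounts in NP-40 versus SDS lysates quantified by mass spectrometry, three biological replicates.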
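Wherever solubility in G1/S (NP-40 vs SDS abundance) is given: HeLa Kyoto cells arrested at G1/S by double thymidine block, proteins quantified by TMT10plex mass spectrometry in mild NP-40 versus SDS extracts, three biological replicates.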

| Sequence | melting temperature (HeLa Kyoto [1]; cell cycle stage: G1/S) [°C] | melting temperature (HeLa Kyoto [1]; cell cycle stage: mitosis) [°C] | solubility in G1/S (log2) (HeLa Kyoto [2]) | solubility change mitosis (log2) (HeLa Kyoto [3]) |
| --- | --- | --- | --- | --- |
| MEAVATATAAKEPDKGCIEPGPGHWGELSRTPVPSKPQDKVEAAEATPVALDSDTSGAENAAVSAMLHAVAASRLPVCSQQQGEPDLTEHEKVAILAQLYHEKPLVFLERFRTGLREEHLACFGHVRGDHRADFYCAEVARQGTARPRTLRTRLRNRRYAALRELIQGGEYFSDEQMRFRAPLLYEQYIGQYLTQEELSARTPTHQPPKPGSPGRPACPLSNLLLQSYEERELQQRLLQQQEEEEACLEEEEEEEDSDEEDQRSGKDSEAWVPDSEERLILREEFTSRMHQRFLDGKDGDFDYSTVDDNPDFDNLDIVARDEEERYFDEEEPEDAPSPELDGD [CCDC97] | 49.6 | 50.8 | 0.105 | 0.36 |
| MESGDEAAIERHRVHLRSATLRDAVPATLHLLPCEVAVDGPAPVGRFFTPAIRQGPEGLEVSFRGRCLRGEEVAVPPGLVGYVMVTEEKKVSMGKPDPLRDSGTDDQEEEPLERDFDRFIGATANFSRFTLWGLETIPGPDAKVRGALTWPSLAAAIHAQVPED [RNASEH2C] | 50.7 | 50.3 | 0.236 | -0.016 |
| MEVHGKPKASPSCSSPTRDSSGVPVSKELLTAGSDGRGGIWDRLLINSQPKSRKTSTLQTVRIERSPLLDQVQTFLPQMARANEKLRKEMAAAPPGRFNIENIDGPHSKVIQMDVALFEMNQSDSKEVDSSEESSQDSSENSSESEDEDDSIPSEVTIDNIKLPNSEGGKGKIEVLDSPASKKKK [C12ORF45] | 52.9 | 53.7 | -0.302 | 0.0873 |
| MFHGIPATPGIGAPGNKPELYEEVKLYKNAREREKYDNMAELFAVVKTMQALEKAYIKDCVSPSEYTAACSRLLVQYKAAFRQVQGSEISSIDEFCRKFRLDCPLAMERIKEDRPITIKDDKGNLNRCIADVVSLFITVMDKLRLEIRAMDEIQPDLRELMETMHRMSHLPPDFEGRQTVSQWLQTLSGMSASDELDDSQVRQMLFDLESAYNAFNRFLHA [VPS28] | 51.5 | – | 0.19 | 0.014 |
| MGAPRSLLLALAAGLAVARPPNIVLIFADDLGYGDLGCYGHPSSTTPNLDQLAAGGLRFTDFYVPVSLCTPSRAALLTGRLPVRMGMYPGVLVPSSRGGLPLEEVTVAEVLAARGYLTGMAGKWHLGVGPEGAFLPPHQGFHRFLGIPYSHDQGPCQNLTCFPPATPCDGGCDQGLVPIPLLANLSVEAQPPWLPGLEARYMAFAHDLMADAQRQDRPFFLYYASHHTHYPQFSGQSFAERSGRGPFGDSLMELDAAVGTLMTAIGDLGLLEETLVIFTADNGPETMRMSRGGCSGLLRCGKGTTYEGGVREPALAFWPGHIAPGVTHELASSLDLLPTLAALAGAPLPNVTLDGFDLSPLLLGTGKSPRQSLFFYPSYPDEVRGVFAVRTGKYKAHFFTQGSAHSDTTADPACHASSSLTAHEPPLLYDLSKDPGENYNLLGGVAGATPEVLQALKQLQLLKAQLDAAVTFGPSQVARGEDPALQICCHPGCTPRPACCHCPDPHA [ARSA] | 55.6 | 55.6 | 0.664 | -0.0336 |
| MGDEDDDESCAVELRITEANLTGHEEKVSVENFELLKVLGTGAYGKVFLVRKAGGHDAGKLYAMKVLRKAALVQRAKTQEHTRTERSVLELVRQAPFLVTLHYAFQTDAKLHLILDYVSGGEMFTHLYQRQYFKEAEVRVYGGEIVLALEHLHKLGIIYRDLKLENVLLDSEGHIVLTDFGLSKEFLTEEKERTFSFCGTIEYMAPEIIRSKTGHGKAVDWWSLGILLFELLTGASPFTLEGERNTQAEVSRRILKCSPPFPPRIGPVAQDLLQRLLCKDPKKRLGAGPQGAQEVRNHPFFQGLDWVALAARKIPAPFRPQIRSELDVGNFAEEFTRLEPVYSPPGSPPPGDPRIFQGYSFVAPSILFDHNNAVMTDGLEAPGAGDRPGRAAVARSAMMQDSPFFQQYELDLREPALGQGSFSVCRRCRQRQSGQEFAVKILSRRLEANTQREVAALRLCQSHPNVVNLHEVHHDQLHTYLVLELLRGGELLEHIRKKRHFSESEASQILRSLVSAVSFMHEEAGVVHRDLKPENILYADDTPGAPVKIIDFGFARLRPQSPGVPMQTPCFTLQYAAPELLAQQGYDESCDLWSLGVILYMMLSGQVPFQGASGQGGQSQAAEIMCKIREGRFSLDGEAWQGVSEEAKELVRGLLTVDPAKRLKLEGLRGSSWLQDGSARSSPPLRTPDVLESSGPAVRSGLNATFMAFNRGKREGFFLKSVENAPLAKRRKQKLRSATASRRGSPAPANPGRAPVASKGAPRRANGPLPPS [RPS6KA4] | 46.6 | 49.5 | -0.0622 | -0.0849 |
| MGEAGAGAGASGGPEASPEAEVVKLLPFLAPGARADLQAAAVRHVLALTGCGPGRALLAGQAALLQALMELAPASAPARDAARALVNLAADPGLHETLLAADPGLPARLMGRALDPQWPWAEEAAAALANLSREPAPCAALMAALAAAEPADSGLERLVRALCTPGYNARAPLHYLAPLLSNLSQRPAARAFLLDPDRCVVQRLLPLTQYPDSSVRRGGVVGTLRNCCFEHRHHEWLLGPEVDILPFLLLPLAGPEDFSEEEMERLPVDLQYLPPDKQREPDADIRKMLVEAIMLLTATAPGRQQVRDQGAYLILRELHSWEPEPDVRTACEKLIQVLIGDEPERGMENLLEVQVPEDVEQQLQQLDCREQEQLERELAPEPWVERATPT [HGH1] | 48.7 | 50.5 | 0.131 | 0.156 |
| MGKKHKKHKSDKHLYEEYVEKPLKLVLKVGGNEVTELSTGSSGHDSSLFEDKNDHDKHKDRKRKKRKKGEKQIPGEEKGRKRRRVKEDKKKRDRDRVENEAEKDLQCHAPVRLDLPPEKPLTSSLAKQEEVEQTPLQEALNQLMRQLQRKDPSAFFSFPVTDFIAPGYSMIIKHPMDFSTMKEKIKNNDYQSIEELKDNFKLMCTNAMIYNKPETIYYKAAKKLLHSGMKILSQERIQSLKQSIDFMADLQKTRKQKDGTDTSQSGEDGGCWQREREDSGDAEAHAFKSPSKENKKKDKDMLEDKFKSNNLEREQEQLDRIVKESGGKLTRRLVNSQCEFERRKPDGTTTLGLLHPVDPIVGEPGYCPVRLGMTTGRLQSGVNTLQGFKEDKRNKVTPVLYLNYGPYSSYAPHYDSTFANISKDDSDLIYSTYGEDSDLPSDFSIHEFLATCQDYPYVMADSLLDVLTKGGHSRTLQEMEMSLPEDEGHTRTLDTAKEMEITEVEPPGRLDSSTQDRLIALKAVTNFGVPVEVFDSEEAEIFQKKLDETTRLLRELQEAQNERLSTRPPPNMICLLGPSYREMHLAEQVTNNLKELAQQVTPGDIVSTYGVRKAMGISIPSPVMENNFVDLTEDTEEPKKTDVAECGPGGS [BRD7] | 46.7 | 49.1 | -0.49 | 0.315 |
| MGPVRLGILLFLFLAVHEAWAGMLKEEDDDTERLPSKCEVCKLLSTELQAELSRTGRSREVLELGQVLDTGKRKRHVPYSVSETRLEEALENLCERILDYSVHAERKGSLRYAKGQSQTMATLKGLVQKGVKVDLGIPLELWDEPSVEVTYLKKQCETMLEEFEDIVGDWYFHHQEQPLQNFLCEGHVLPAAETACLQETWTGKEITDGEEKTEGEEEQEEEEEEEEEEGGDKMTKTGSHPKLDREDL [CNPY4] | – | 54.3 | 0.0586 | 0.223 |
| MGWSQDLFRALWRSLSREVKEHVGTDQFGNKYYYIPQYKNWRGQTIREKRIVEAANKKEVDYEAGDIPTEWEAWIRRTRKTPPTMEEILKNEKHREEIKIKSQDFYEKEKLLSKETSEELLPPPVQTQIKGHASAPYFGKEEPSVAPSSTGKTFQPGSWMPRDGKSHNQ [NDUFAF2] | 55.5 | 52.2 | 0.329 | 0.329 |
| MIEDTMTLLSLLGRIMRYFLLRPETLFLLCISLALWSYFFHTDEVKTIVKSSRDAVKMVKGKVAEIMQNDRLGGLDVLEAEFSKTWEFKNHNVAVYSIQGRRDHMEDRFEVLTDLANKTHPSIFGIFDGHGGETAAEYVKSRLPEALKQHLQDYEKDKENSVLSYQTILEQQILSIDREMLEKLTVSYDEAGTTCLIALLSDKDLTVANVGDSRGVLCDKDGNAIPLSHDHKPYQLKERKRIKRAGGFISFNGSWRVQGILAMSRSLGDYPLKNLNVVIPDPDILTFDLDKLQPEFMILASDGLWDAFSNEEAVRFIKERLDEPHFGAKSIVLQSFYRGCPDNITVMVVKFRNSSKTEEQ [PPM1L] | – | 53.9 | -0.0862 | -0.142 |
| MISQFFILSSKGDPLIYKDFRGDSGGRDVAELFYRKLTGLPGDESPVVMHHHGRHFIHIRHSGLYLVVTTSENVSPFSLLELLSRLATLLGDYCGSLGEGTISRNVALVYELLDEVLDYGYVQTTSTEMLRNFIQTEAVVSKPFSLFDLSSVGLFGAETQQSKVAPSSAASRPVLSSRSDQSQKNEVFLDVVERLSVLIASNGSLLKVDVQGEIRLKSFLPSGSEMRIGLTEEFCVGKSELRGYGPGIRVDEVSFHSSVNLDEFESHRILRLQPPQGELTVMRYQLSDDLPSPLPFRLFPSVQWDRGSGRLQVYLKLRCDLLSKSQALNVRLHLPLPRGVVSLSQELSSPEQKAELAEGALRWDLPRVQGGSQLSGLFQMDVPGPPGPPSHGLSTSASPLGLGPASLSFELPRHTCSGLQVRFLRLAFRPCGNANPHKWVRHLSHSDAYVIRI [AP4M1] | 49.2 | – | -0.0981 | -0.0241 |
| MKAVKSERERGSRRRHRDGDVVLPAGVVVKQERLSPEVAPPAHRRPDHSGGSPSPPTSEPARSGHRGNRARGVSRSPPKKKNKASGRRSKSPRSKRNRSPHHSTVKVKQEREDHPRRGREDRQHREPSEQEHRRARNSDRDRHRGHSHQRRTSNERPGSGQGQGRDRDTQNLQAQEEEREFYNARRREHRQRNDVGGGGSESQELVPRPGGNNKEKEVPAKEKPSFELSGALLEDTNTFRGVVIKYSEPPEARIPKKRWRLYPFKNDEVLPVMYIHRQSAYLLGRHRRIADIPIDHPSCSKQHAVFQYRLVEYTRADGTVGRRVKPYIIDLGSGNGTFLNNKRIEPQRYYELKEKDVLKFGFSSREYVLLHESSDTSEIDRKDDEDEEEEEEVSDS [SNIP1] | – | 49.8 | -0.985 | 0.493 |
| MLPGLRRLLQAPASACLLLMLLALPLAAPSCPMLCTCYSSPPTVSCQANNFSSVPLSLPPSTQRLFLQNNLIRTLRPGTFGSNLLTLWLFSNNLSTIYPGTFRHLQALEELDLGDNRHLRSLEPDTFQGLERLQSLHLYRCQLSSLPGNIFRGLVSLQYLYLQENSLLHLQDDLFADLANLSHLFLHGNRLRLLTEHVFRGLGSLDRLLLHGNRLQGVHRAAFRGLSRLTILYLFNNSLASLPGEALADLPSLEFLRLNANPWACDCRARPLWAWFQRARVSSSDVTCATPPERQGRDLRALREADFQACPPAAPTRPGSRARGNSSSNHLYGVAEAGAPPADPSTLYRDLPAEDSRGRQGGDAPTEDDYWGGYGGEDQRGEQMCPGAACQAPPDSRGPALSAGLPSPLLCLLLLVPHHL [RTN4RL2] | 54 | 53.7 | 0.0566 | -0.00838 |
| MNGEEEFFDAVTGFDSDNSSGEFSEANQKVTGMIDLDTSKNNRIGKTGERPSQENGIQKHRTSLPAPMFSRSDFSVWTILKKCVGLELSKITMPIAFNEPLSFLQRITEYMEHVYLIHRASCQPQPLERMQSVAAFAVSAVASQWERTGKPFNPLLGETYELIREDLGFRFISEQVSHHPPISAFHSEGLNHDFLFHGSIYPKLKFWGKSVEAEPRGTITLELLKHNEAYTWTNPTCCVHNVIIGKLWIEQYGTVEILNHRTGHKCVLHFKPCGLFGKELHKVEGHIQDKNKKKLFMIYGKWTECLWGIDPVSYESFKKQERRGDHLRKAKLDEDSGKADSDVADDVPVAQETVQVIPGSKLLWRINTRPPNSAQMYNFTSFTVSLNELETGMEKTLPPTDCRLRPDIRGMENGNMDLASQEKERLEEKQREARRERAKEEAEWQTRWFYPGNNPYTGTPDWLYAGDYFERNFSDCPDIY [OSBPL2] | 48.1 | 48.6 | -0.0421 | -0.108 |
